The values that follow come from US20040121386.

One data set relates to T1, His-tagged MKK7γ1.
T1 sequence: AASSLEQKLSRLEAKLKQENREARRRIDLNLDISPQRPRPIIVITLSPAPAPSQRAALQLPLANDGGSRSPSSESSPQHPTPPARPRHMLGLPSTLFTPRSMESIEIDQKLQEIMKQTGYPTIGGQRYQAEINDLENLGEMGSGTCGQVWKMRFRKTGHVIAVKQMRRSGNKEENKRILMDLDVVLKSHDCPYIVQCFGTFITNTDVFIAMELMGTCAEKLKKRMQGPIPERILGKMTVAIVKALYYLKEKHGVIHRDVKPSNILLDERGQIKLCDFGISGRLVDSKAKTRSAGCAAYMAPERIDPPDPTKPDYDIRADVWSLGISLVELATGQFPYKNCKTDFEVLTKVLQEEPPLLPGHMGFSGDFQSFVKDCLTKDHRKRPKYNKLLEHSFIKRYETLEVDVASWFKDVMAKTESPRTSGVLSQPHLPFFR

Data set [1] relates to unactive JNK1 (Upstate, Inc.).

Active MEKK1 (Upstate, Inc.): the “phosphorylation in a two-step cascade kinase assay (γ-32P-ATP, SDS/PAGE, autoradiography)” value in the data set with unactive MKK7β1 (UBI) is “The His-tagged MKK7γ1 protein and the MKK7β1 protein was phosphorylated by MEKK1”; with His-tagged MKK7γ1, “The His-tagged MKK7γ1 protein and the MKK7β1 protein was phosphorylated by MEKK1”. On to unactive MKK7β1 (UBI), for which the “phosphorylation in a two-step cascade kinase assay (γ-32P-ATP, SDS/PAGE, autoradiography)” value in data set [1] is listed as “in turn was able to phosphorylate JNK1”.
